B1: full-length Kir4.1 protein with the ΔTQT deletion (natural protein, UniProt P78508 1-379, looked up)
chain: MTSVAKVYYSQTESRPLMGPGIRRRRVLTKDGRSNVRMEHIADKRFLYLKDLWTTFIDMQWRYKLLLFSATFAGTWFLFGVVWYLVAVAHGDLLELDPPANHTPCVVQVHTLTGAFLFSLESQTTIGYGFRYISEECPLAIVLLIAQLVLTTILEIFITGTFLAKIARPKKRAETIRFSQHAVVASHNGKPCLMIRVANMRKSLLIGCQVTGKLLQTHQTKEGENIRLNQVNVTFQVDTASDSPFLILPLTFYHVVDETSPLKDLPLRSGEGDFELVLILSGTVESTSATCQVRTSYLPEEILWGYEFTPAISLSASGKYIADFSLFDQVVKVASPSGLRDSTVRYGDPEKLKLEESLREQAEKEGSALSVRISNV
notes: Kir4.1 (KCNJ10), full length, with the three TQT residues (13-15) deleted; also called Kir4.1-ΔTQT; not shown: GFP, N-terminal, kept
B2: N-terminal FLAG-GFP-tagged full-length Kir4.1 (natural protein, UniProt P78508 1-379, looked up)
chain: MTSVAKVYYSQTTQTESRPLMGPGIRRRRVLTKDGRSNVRMEHIADKRFLYLKDLWTTFIDMQWRYKLLLFSATFAGTWFLFGVVWYLVAVAHGDLLELDPPANHTPCVVQVHTLTGAFLFSLESQTTIGYGFRYISEECPLAIVLLIAQLVLTTILEIFITGTFLAKIARPKKRAETIRFSQHAVVASHNGKPCLMIRVANMRKSLLIGCQVTGKLLQTHQTKEGENIRLNQVNVTFQVDTASDSPFLILPLTFYHVVDETSPLKDLPLRSGEGDFELVLILSGTVESTSATCQVRTSYLPEEILWGYEFTPAISLSASGKYIADFSLFDQVVKVASPSGLRDSTVRYGDPEKLKLEESLREQAEKEGSALSVRISNV
notes: Kir4.1 (KCNJ10), full length; also called F-GFP-Kir4.1; Kir4.1-WT; source: in detergent-solubilized membrane fraction, and purified; not shown: FLAG, N-terminal, kept; GFP, N-terminal, kept
B3: full-length Kir4.1, N-terminal tags cleaved off (natural protein, UniProt P78508 1-379, looked up)
chain: B2 chain
notes: Kir4.1 (KCNJ10) inwardly rectifying potassium channel, full length; Purified as a tetramer that carries copurified endogenous LC8; also called KCNJ10; Kir4.1 WT; source: purified (FLAG resin, eluted by HRV 3C cleavage, Superose 6 SEC); not shown: FLAG, N-terminal, cleaved; GFP, N-terminal, cleaved

Target: the molecule itself
Assay: SEC; purified Kir4.1 proteins on a Superose 6 column in glyco-diosgenin-containing buffer; pH 8.0 and pH 6.0 for the WT without tags; tetramer peak

Row | Protein | stoichiometry N
1 | B1 | 4
2 | B2 | 4
3 | B3 | 4
